* marks the point of attachment. X1 = CC1(C)C(/C=C/C2=C(Cl)C(=C/C=C3/N(CCCCCC(=O)*)c4ccc5cc(S(=O)(=O)O)ccc5c4C3(C)C)/CCC2)=[N+](CCCS(=O)(=O)[O-])c2ccc(N(CCCS(=O)(=O)O)CCCS(=O)(=O)O)cc21; X2 = CC(C)(C)c1cc(/C=C/C=C2\N(CCCS(=O)(=O)O)c3ccc(S(=O)(=O)O)cc3C2(C)CCCC(=O)CCN2C(=O)CC(*)C2=O)c2ccc(N(CCCS(=O)(=O)[O-])CCCS(=O)(=O)O)cc2[o+]1
Legend:
[1] = Stability and pH dependence of fluorescence of FRETS-rVWF71; assay type: physicochemical
Experimental: In these experiments, DyLight 633 maleimide (Thermo Scientific, Waltham, Mass.) 1 mg/100 μL in dimethyl sulfoxide (DMSO) was added dropwise with stirring to peptide VWF71 (10 mg) in ≦2 mL of 100 mM sodium phosphate, pH 7.1, in the dark, and stirred overnight at room temperature. The product DyLight 633-rVWF71 was purified by HPLC on C18 using the TEAA/acetonitrile solvent system as described for the purification of VWF71. DyLight 633-rVWF71 was lyophilized and desalted on a small column of PD-10 in ≦2 mL of 100 mM sodium phosphate, pH 7.9. IRDye QC-1 N-hydroxysuccinimide ester 0.5 mg in 100 μL DMSO was added dropwise with stirring and the solution was stirred overnight at room temperature protected from light. The product FRETS-rVWF71 was purified by reverse phase HPLC, lyophilized, dissolved in ≦0.5 mL of deionized water and applied onto a column (7×230 mm) of Amberlite IR120 sodium form. FRETS-rVWF71 product was eluted with deionized water and lyophilized or concentrated by ultrafiltration to ≧250 μM. The concentration was verified by amino acid analysis (The Protein Chemistry Laboratory, Texas A&M University).

ADAMTS13 = target: T1, ADAMTS13 (Homo sapiens, UniProt Q76LX8); assay: ADAMTS13 activity of plasma samples with FRETS-rVWF71 substrate; assay type: biochemical; design: from tissue; host or cells: human plasma or serum (pooled normal plasma, healthy donors, TTP patients); conditions: samples from patients with idiopathic TTP
T1 sequence (Q76LX8 75-1427): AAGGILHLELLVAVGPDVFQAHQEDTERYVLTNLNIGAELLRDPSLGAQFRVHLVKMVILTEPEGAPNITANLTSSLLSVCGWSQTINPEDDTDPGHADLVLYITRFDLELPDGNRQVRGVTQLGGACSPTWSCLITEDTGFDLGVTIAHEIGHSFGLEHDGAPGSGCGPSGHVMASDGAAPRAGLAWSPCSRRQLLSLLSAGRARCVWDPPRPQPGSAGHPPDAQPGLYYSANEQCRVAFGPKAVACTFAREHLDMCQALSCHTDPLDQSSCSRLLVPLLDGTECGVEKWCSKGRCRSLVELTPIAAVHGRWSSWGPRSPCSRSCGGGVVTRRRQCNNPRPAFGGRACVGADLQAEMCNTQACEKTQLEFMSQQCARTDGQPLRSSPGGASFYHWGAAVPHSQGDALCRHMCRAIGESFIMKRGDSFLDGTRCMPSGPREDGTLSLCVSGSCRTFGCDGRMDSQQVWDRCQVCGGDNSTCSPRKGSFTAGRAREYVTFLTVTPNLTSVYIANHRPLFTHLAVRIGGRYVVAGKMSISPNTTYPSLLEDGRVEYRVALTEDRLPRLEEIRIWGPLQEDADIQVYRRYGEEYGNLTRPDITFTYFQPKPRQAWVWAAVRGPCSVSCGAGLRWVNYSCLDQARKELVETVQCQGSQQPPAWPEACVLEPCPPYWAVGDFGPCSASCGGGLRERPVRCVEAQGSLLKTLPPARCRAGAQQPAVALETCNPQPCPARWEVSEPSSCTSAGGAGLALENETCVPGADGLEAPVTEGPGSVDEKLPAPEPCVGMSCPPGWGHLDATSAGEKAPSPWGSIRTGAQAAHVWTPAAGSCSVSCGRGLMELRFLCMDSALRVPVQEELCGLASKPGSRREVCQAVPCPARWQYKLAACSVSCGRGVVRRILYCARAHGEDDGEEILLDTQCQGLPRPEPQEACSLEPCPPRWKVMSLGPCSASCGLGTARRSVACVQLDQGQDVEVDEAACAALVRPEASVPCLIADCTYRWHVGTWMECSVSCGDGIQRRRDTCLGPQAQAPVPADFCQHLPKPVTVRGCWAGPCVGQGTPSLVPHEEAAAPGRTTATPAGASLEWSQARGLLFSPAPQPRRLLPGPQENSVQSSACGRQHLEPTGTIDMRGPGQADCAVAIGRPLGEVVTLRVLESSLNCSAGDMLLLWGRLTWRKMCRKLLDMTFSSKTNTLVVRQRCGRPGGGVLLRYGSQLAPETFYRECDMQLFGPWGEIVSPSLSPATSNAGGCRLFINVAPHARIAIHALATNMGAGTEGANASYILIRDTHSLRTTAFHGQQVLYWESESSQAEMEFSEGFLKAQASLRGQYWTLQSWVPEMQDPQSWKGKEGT
Experimental: Assays were performed at 30° C. Samples (100 μL) of plasma or serum, diluted as necessary in assay buffer, were pipetted in duplicate in 96 well white microplates (Optiplate-96, PerkinElmer, Waltham, Mass.). Reaction was initiated by addition of 100 μL substrate in assay buffer. Cleavage of FRETS-rVWF71 was detected as an increase in fluorescence compared to control reactions without added enzyme at 2 min intervals using a Victor^2V Multilabel Counter (PerkinElmer, Waltham, Mass.) or Synergy H1 Hybrid Multi-Mode Microplate Reader (Biotek, Winooski, Vt.) equipped with 635±10 nm excitation and 660±10 nm emission filters. Initial velocities were determined by fitting progress curves to the polynomial ΔF=A+Bt+Ct^2, where ΔF is the change in fluorescence, t is time, A is the y-intercept, B is the initial velocity (slope), and the term Ct^2 accounts for any decline in velocity due to substrate consumption or photobleaching.
In these experiments, frozen Li^+-heparin plasma samples were obtained from 100 healthy controls (Biological Specialty Corp., Colmar, Pa.) deidentified except for demographic information on gender, age, and ethnicity. Pooled normal Li^+-heparin plasma (PNP) for assay standardization was prepared from at least 35 donors. […] activity of randomly selected controls samples was determined by the FRETS-VWF73 method. […]

With “X1-GQAPNLVYMVTGC(X2)PASDEIRRLPGDIQVVPIGVGPNANVQELERIGWPNAPILIQDFETLPREAPDLVLQR [FRETS-rVWF71]” the “variation of fluorescence emission at 660 nm with pH” value ([1]; excitation 635 nm, uncleaved and fully cleaved substrate, between pH 5 and pH 10) was less than 7%, the “stability of final product” value ([1]; sodium salt) was “stable” and the stability on storage ([1]; working stocks at −20° C. thawed and refrozen repeatedly over several months) was “without any change in stability or chemical properties”. For the same substance, the “sensitivity of ADAMTS13 activity assay relative to FRETS-VWF73” value (ADAMTS13) was 20 fold.

Reference: patent publication US8663912B2, “Fluorogenic substrate for ADAMTS13” (Washington University, priority 2011, dated 2014)
